Source: the supplement of paper PMC10065799, “High-throughput profiling of sequence recognition by tyrosine kinases and SH2 domains using bacterial peptide display” (eLife, 2023)
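Throughout, for SH2 binding enrichment of the phosphorylated peptide, bacterial display: peptide library displayed on the E. coli surface as eCPX fusions, selected cells deep-sequenced, score is each peptide's frequency after selection divided by its frequency in the input.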
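Throughout, for phosphorylation enrichment, bacterial display: 11-residue human phosphosite peptides and single-mutation variants displayed on the E. coli surface, counted by deep sequencing, each peptide's frequency after selection divided by its frequency in the unselected input library; frequency after pTyr selection over input frequency; kinase dosed for 20-30% of maximal phosphorylation in three min.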

The sequences below were run on c-Src (assay: phosphorylation enrichment, bacterial display (enrichment ratio); higher = better substrate or ligand; peptides without Tyr show the background).
Sequence GRQGIYTKNER [GPR143_Y231_E233K] has a phosphorylation enrichment of 0.327. For GTHCHYKAPIV [FZD9_Y569_T573I], the phosphorylation enrichment was 0.395. KDQGTYEDFVE [MYL6_Y86_YF] gave a phosphorylation enrichment of 1.31. GPQGVYSNKLV [PTPN14_Y506] showed a phosphorylation enrichment of 0.636. IGVDSYSVCKR [RPS6KA3_Y433_G431D] was tested, and the phosphorylation enrichment was 0.322. For VSNFNYFFHRE [KCNA1_Y413_YF], the phosphorylation enrichment was 0.445. Work on QHVPDYRQNGY [PCDHGA1_Y890_V894G] yielded a phosphorylation enrichment of 0.514. Work on VSVVDYVEPSP [TXNRD2_Y70_A66S] yielded a phosphorylation enrichment of 0.489. Sequence FSIDHYLGKEM [G6PD_Y202_R198S_YF] has a phosphorylation enrichment of 0.464. DQIDTYELSGA [DNM1_Y354_G359A] was tested, and the phosphorylation enrichment was 0.793. NNHGNYIVRLG [ETFDH_Y172] gave a phosphorylation enrichment of 0.547. With KPVEEYANCHL [TF_Y593] the phosphorylation enrichment was 0.547. With HFGCVYFGTLL [MET_Y1093_H1094Y_YF] the phosphorylation enrichment was 3.7. Sequence QFRFIYMAVQH [PTPN11_Y515_YF] has a phosphorylation enrichment of 1.97. Sequence LHQSTYQCYDV [SLC7A14_Y693_R695C] has a phosphorylation enrichment of 5.21. In the case of EPYKVYRIVPE [IRF8_Y110], the phosphorylation enrichment is reported as 0.605. Work on PLEGEYFTLQI [TP53_Y327_D324E] yielded a phosphorylation enrichment of 7.65. DVFRQYASLTG [GANAB_Y379] gave a phosphorylation enrichment of 0.402. Work on GSRGKYSSGFR [ATM_Y332] yielded a phosphorylation enrichment of 0.649. In the case of SWVVPYEPPEV [TP53_Y220_V216W], the phosphorylation enrichment is reported as 0.411. In the case of EKSREYDRLYE [PIK3R1_Y463], the phosphorylation enrichment is reported as 0.587. Work on LCHELYNTIRD [PBRM1_Y54_V49L] yielded a phosphorylation enrichment of 3.39. With TSESSYYKSLN [NGEF_Y288_A286S] the phosphorylation enrichment was 0.518. In the case of SSLMKYQQNVS [EGFEM1P_Y160_P157L], the phosphorylation enrichment is reported as 0.363. QKKPRYEIRWK [PDGFRB_Y562] gave a phosphorylation enrichment of 0.605. In the case of TTKAKYKTPTY [PLD2_Y573], the phosphorylation enrichment is reported as 0.406. With STEVIYQPRRK [STK11_Y36] the phosphorylation enrichment was 0.704. GREFIYVDPMQ [PDGFRA_Y574_H570R_YF] showed a phosphorylation enrichment of 1.36. AGAKTYKMSMA [CPS1_Y309] was tested, and the phosphorylation enrichment was 0.399.

The sequences below were run against Grb2 SH2 (UniProt P62993) (assay: SH2 binding enrichment of the phosphorylated peptide, bacterial display (enrichment ratio); higher = better substrate or ligand; peptides without Tyr show the background).
Chain of Grb2 SH2 (P62993 whole entry, looked up): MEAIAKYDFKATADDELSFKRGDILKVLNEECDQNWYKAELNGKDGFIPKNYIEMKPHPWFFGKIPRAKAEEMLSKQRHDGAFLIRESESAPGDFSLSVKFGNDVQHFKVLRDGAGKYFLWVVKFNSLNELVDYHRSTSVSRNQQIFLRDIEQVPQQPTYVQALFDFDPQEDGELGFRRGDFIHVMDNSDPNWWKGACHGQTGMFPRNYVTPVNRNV
GRQGIYTKNER [GPR143_Y231_E233K] showed an SH2 binding enrichment of 1.01. GTHCHYKAPIV [FZD9_Y569_T573I] was tested, and the SH2 binding enrichment was 0.995. KDQGTYEDFVE [MYL6_Y86_YF] was tested, and the SH2 binding enrichment was 0.509. GPQGVYSNKLV [PTPN14_Y506] showed an SH2 binding enrichment of 0.654. With IGVDSYSVCKR [RPS6KA3_Y433_G431D] the SH2 binding enrichment was 0.908. Work on VSNFNYFFHRE [KCNA1_Y413_YF] yielded an SH2 binding enrichment of 1.35. QHVPDYRQNGY [PCDHGA1_Y890_V894G] gave an SH2 binding enrichment of 0.889. In the case of VSVVDYVEPSP [TXNRD2_Y70_A66S], the SH2 binding enrichment is reported as 0.888. Work on FSIDHYLGKEM [G6PD_Y202_R198S_YF] yielded an SH2 binding enrichment of 0.831. Sequence DQIDTYELSGA [DNM1_Y354_G359A] has an SH2 binding enrichment of 0.824. NNHGNYIVRLG [ETFDH_Y172] gave an SH2 binding enrichment of 0.889. Sequence KPVEEYANCHL [TF_Y593] has an SH2 binding enrichment of 1.1. HFGCVYFGTLL [MET_Y1093_H1094Y_YF] was tested, and the SH2 binding enrichment was 0.857. In the case of QFRFIYMAVQH [PTPN11_Y515_YF], the SH2 binding enrichment is reported as 0.948. In the case of LHQSTYQCYDV [SLC7A14_Y693_R695C], the SH2 binding enrichment is reported as 0.756. With EPYKVYRIVPE [IRF8_Y110] the SH2 binding enrichment was 0.762. PLEGEYFTLQI [TP53_Y327_D324E] showed an SH2 binding enrichment of 0.347. Work on DVFRQYASLTG [GANAB_Y379] yielded an SH2 binding enrichment of 0.893. GSRGKYSSGFR [ATM_Y332] was tested, and the SH2 binding enrichment was 1.15. With SWVVPYEPPEV [TP53_Y220_V216W] the SH2 binding enrichment was 1.05. With EKSREYDRLYE [PIK3R1_Y463] the SH2 binding enrichment was 0.966. With LCHELYNTIRD [PBRM1_Y54_V49L] the SH2 binding enrichment was 1.21. For TSESSYYKSLN [NGEF_Y288_A286S], the SH2 binding enrichment was 0.892. SSLMKYQQNVS [EGFEM1P_Y160_P157L] showed an SH2 binding enrichment of 0.783. QKKPRYEIRWK [PDGFRB_Y562] showed an SH2 binding enrichment of 2.77. Sequence TTKAKYKTPTY [PLD2_Y573] has an SH2 binding enrichment of 0.906. STEVIYQPRRK [STK11_Y36] gave an SH2 binding enrichment of 0.585. For GREFIYVDPMQ [PDGFRA_Y574_H570R_YF], the SH2 binding enrichment was 1.08. AGAKTYKMSMA [CPS1_Y309] gave an SH2 binding enrichment of 0.688.

These sequences were tested against SHP2-C SH2 in the same assay as above.
Work on GRQGIYTKNER [GPR143_Y231_E233K] yielded an SH2 binding enrichment of 0.802. For GTHCHYKAPIV [FZD9_Y569_T573I], the SH2 binding enrichment was 0.953. KDQGTYEDFVE [MYL6_Y86_YF] was tested, and the SH2 binding enrichment was 0.247. In the case of GPQGVYSNKLV [PTPN14_Y506], the SH2 binding enrichment is reported as 0.724. With IGVDSYSVCKR [RPS6KA3_Y433_G431D] the SH2 binding enrichment was 0.627. VSNFNYFFHRE [KCNA1_Y413_YF] showed an SH2 binding enrichment of 1.39. QHVPDYRQNGY [PCDHGA1_Y890_V894G] was tested, and the SH2 binding enrichment was 0.678. VSVVDYVEPSP [TXNRD2_Y70_A66S] showed an SH2 binding enrichment of 0.757. Work on FSIDHYLGKEM [G6PD_Y202_R198S_YF] yielded an SH2 binding enrichment of 0.953. DQIDTYELSGA [DNM1_Y354_G359A] showed an SH2 binding enrichment of 0.727. NNHGNYIVRLG [ETFDH_Y172] was tested, and the SH2 binding enrichment was 0.991. In the case of KPVEEYANCHL [TF_Y593], the SH2 binding enrichment is reported as 0.758. In the case of HFGCVYFGTLL [MET_Y1093_H1094Y_YF], the SH2 binding enrichment is reported as 0.714. With QFRFIYMAVQH [PTPN11_Y515_YF] the SH2 binding enrichment was 0.635. Sequence LHQSTYQCYDV [SLC7A14_Y693_R695C] has an SH2 binding enrichment of 0.513. EPYKVYRIVPE [IRF8_Y110] gave an SH2 binding enrichment of 0.646. PLEGEYFTLQI [TP53_Y327_D324E] gave an SH2 binding enrichment of 0.651. Work on DVFRQYASLTG [GANAB_Y379] yielded an SH2 binding enrichment of 6.85. Sequence GSRGKYSSGFR [ATM_Y332] has an SH2 binding enrichment of 0.912. Work on SWVVPYEPPEV [TP53_Y220_V216W] yielded an SH2 binding enrichment of 0.639. EKSREYDRLYE [PIK3R1_Y463] was tested, and the SH2 binding enrichment was 0.612. With LCHELYNTIRD [PBRM1_Y54_V49L] the SH2 binding enrichment was 1.04. TSESSYYKSLN [NGEF_Y288_A286S] showed an SH2 binding enrichment of 0.64. SSLMKYQQNVS [EGFEM1P_Y160_P157L] was tested, and the SH2 binding enrichment was 0.723. QKKPRYEIRWK [PDGFRB_Y562] showed an SH2 binding enrichment of 3. TTKAKYKTPTY [PLD2_Y573] gave an SH2 binding enrichment of 0.848. With STEVIYQPRRK [STK11_Y36] the SH2 binding enrichment was 0.467. In the case of GREFIYVDPMQ [PDGFRA_Y574_H570R_YF], the SH2 binding enrichment is reported as 0.596. AGAKTYKMSMA [CPS1_Y309] showed an SH2 binding enrichment of 0.819.

The sequences below were run against c-Src SH2 in the same assay as above.
Sequence GRQGIYTKNER [GPR143_Y231_E233K] has an SH2 binding enrichment of 0.493. Work on GTHCHYKAPIV [FZD9_Y569_T573I] yielded an SH2 binding enrichment of 0.953. In the case of KDQGTYEDFVE [MYL6_Y86_YF], the SH2 binding enrichment is reported as 1.46. GPQGVYSNKLV [PTPN14_Y506] showed an SH2 binding enrichment of 0.536. IGVDSYSVCKR [RPS6KA3_Y433_G431D] gave an SH2 binding enrichment of 0.971. With VSNFNYFFHRE [KCNA1_Y413_YF] the SH2 binding enrichment was 0.79. QHVPDYRQNGY [PCDHGA1_Y890_V894G] gave an SH2 binding enrichment of 0.486. Sequence VSVVDYVEPSP [TXNRD2_Y70_A66S] has an SH2 binding enrichment of 0.58. FSIDHYLGKEM [G6PD_Y202_R198S_YF] showed an SH2 binding enrichment of 0.643. With DQIDTYELSGA [DNM1_Y354_G359A] the SH2 binding enrichment was 0.493. With NNHGNYIVRLG [ETFDH_Y172] the SH2 binding enrichment was 0.781. KPVEEYANCHL [TF_Y593] showed an SH2 binding enrichment of 1.25. HFGCVYFGTLL [MET_Y1093_H1094Y_YF] showed an SH2 binding enrichment of 0.535. QFRFIYMAVQH [PTPN11_Y515_YF] showed an SH2 binding enrichment of 0.58. LHQSTYQCYDV [SLC7A14_Y693_R695C] showed an SH2 binding enrichment of 0.536. In the case of EPYKVYRIVPE [IRF8_Y110], the SH2 binding enrichment is reported as 0.598. PLEGEYFTLQI [TP53_Y327_D324E] was tested, and the SH2 binding enrichment was 0.493. For DVFRQYASLTG [GANAB_Y379], the SH2 binding enrichment was 2.5. With GSRGKYSSGFR [ATM_Y332] the SH2 binding enrichment was 0.833. For SWVVPYEPPEV [TP53_Y220_V216W], the SH2 binding enrichment was 1.33. EKSREYDRLYE [PIK3R1_Y463] was tested, and the SH2 binding enrichment was 16.9. In the case of LCHELYNTIRD [PBRM1_Y54_V49L], the SH2 binding enrichment is reported as 4. With TSESSYYKSLN [NGEF_Y288_A286S] the SH2 binding enrichment was 0.65. With SSLMKYQQNVS [EGFEM1P_Y160_P157L] the SH2 binding enrichment was 0.398. Work on QKKPRYEIRWK [PDGFRB_Y562] yielded an SH2 binding enrichment of 1.64. TTKAKYKTPTY [PLD2_Y573] showed an SH2 binding enrichment of 0.541. Work on STEVIYQPRRK [STK11_Y36] yielded an SH2 binding enrichment of 0.376. In the case of GREFIYVDPMQ [PDGFRA_Y574_H570R_YF], the SH2 binding enrichment is reported as 0.524. AGAKTYKMSMA [CPS1_Y309] was tested, and the SH2 binding enrichment was 0.586.
